# Test results as given in patent US20170137467A1 (CHROMOTEK, published 2017).
# Changes are numbered by the printed parent chain.
# B1: BC2 nanobody (VHH)
# VHH: QVQLVESGGGLVQPGGSLTLSCTASGFTLDHYDIGWFRQAPGKEREGVSCINNSDDDTYYADSVKGRFTIFMDNAKDTVYLQMNSLKPEDTAIYYCAEARGCKRGRYEYDFWGQGTQVTVSS
# notes: immobilised on beads in this assay; also called BC2-Nb; BC2 nanotrap (immobilised)
# B2: BC2-NbR106S (VHH)
# VHH: B1 VHH with R106S
# notes: headlock mutant of BC2-Nb; immobilised on beads in this assay
# Key:
# Assay in all cases: positional peptide library pulldown on immobilised Nb, LC-MS of supernatant; signal ratio to control GFP-Nb (1 = not captured, near 0 = captured)
# BC2T Q11K = biological target: T1, BC2T Q11K
# T1 construct: positional scanning library member
# T1 peptide: Ac-PDRKAAVSHWKQ-NH2
# In short: (§1)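 Unbound peptide left in supernatant after 1 h pulldown in PBS/0.01% CHAPS measured by reversed-phase LC-MS (8–30% eluent B gradient, 20 min).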
# BC2T S8V = biological target: T2, BC2T S8V
# T2 construct: positional scanning library member
# T2 peptide: Ac-PDRKAAVVHWQQ-NH2
# In short: as §1
# BC2T Q12(I/L2) = biological target: T3, BC2T Q12(I/L2) (N-terminal acetyl; C-terminal amide)
# T3 construct: positional scanning library member; I or L not resolved
# In short: as §1
# BC2T Q12H = biological target: T4, BC2T Q12H
# T4 construct: positional scanning library member
# T4 peptide: Ac-PDRKAAVSHWQH-NH2
# In short: as §1
# BC2T S8H = biological target: T5, BC2T S8H
# T5 construct: positional scanning library member
# T5 peptide: Ac-PDRKAAVHHWQQ-NH2
# In short: as §1
# BC2T H9Y = biological target: T6, BC2T H9Y
# T6 construct: positional scanning library member
# T6 peptide: Ac-PDRKAAVSYWQQ-NH2
# In short: as §1
# BC2T W10G = biological target: T7, BC2T W10G
# T7 construct: positional scanning library member
# T7 peptide: Ac-PDRKAAVSHGQQ-NH2
# In short: as §1
# BC2T Q11N = biological target: T8, BC2T Q11N
# T8 construct: positional scanning library member
# T8 peptide: Ac-PDRKAAVSHWNQ-NH2
# In short: as §1
# BC2T Q11S = biological target: T9, BC2T Q11S
# T9 construct: positional scanning library member
# T9 peptide: Ac-PDRKAAVSHWSQ-NH2
# In short: as §1
# BC2T H9Q = biological target: T10, BC2T H9Q
# T10 construct: positional scanning library member
# T10 peptide: Ac-PDRKAAVSQWQQ-NH2
# In short: as §1
# BC2T W10A = biological target: T11, BC2T W10A
# T11 construct: positional scanning library member
# T11 peptide: Ac-PDRKAAVSHAQQ-NH2
# In short: as §1
# BC2T Q11(I/L2) = biological target: T12, BC2T Q11(I/L2) (N-terminal acetyl; C-terminal amide)
# T12 construct: positional scanning library member; I or L not resolved
# In short: as §1
# BC2T W10Y = biological target: T13, BC2T W10Y
# T13 construct: positional scanning library member
# T13 peptide: Ac-PDRKAAVSHYQQ-NH2
# In short: as §1
# BC2T Q12V = biological target: T14, BC2T Q12V
# T14 construct: positional scanning library member
# T14 peptide: Ac-PDRKAAVSHWQV-NH2
# In short: as §1
# BC2T W10P = biological target: T15, BC2T W10P
# T15 construct: positional scanning library member
# T15 peptide: Ac-PDRKAAVSHPQQ-NH2
# In short: as §1
# BC2T Q11H = biological target: T16, BC2T Q11H
# T16 construct: positional scanning library member
# T16 peptide: Ac-PDRKAAVSHWHQ-NH2
# In short: as §1
# BC2T Q11T = biological target: T17, BC2T Q11T
# T17 construct: positional scanning library member
# T17 peptide: Ac-PDRKAAVSHWTQ-NH2
# In short: as §1
# BC2T S8R = biological target: T18, BC2T S8R
# T18 construct: positional scanning library member
# T18 peptide: Ac-PDRKAAVRHWQQ-NH2
# In short: as §1
# BC2T W10K = biological target: T19, BC2T W10K
# T19 construct: positional scanning library member
# T19 peptide: Ac-PDRKAAVSHKQQ-NH2
# In short: as §1
Binder,ratio (BC2T Q11K),ratio (BC2T S8V),ratio (BC2T Q12(I/L2)),ratio (BC2T Q12H),ratio (BC2T S8H),ratio (BC2T H9Y),ratio (BC2T W10G),ratio (BC2T Q11N),ratio (BC2T Q11S),ratio (BC2T H9Q),ratio (BC2T W10A),ratio (BC2T Q11(I/L2)),ratio (BC2T W10Y),ratio (BC2T Q12V),ratio (BC2T W10P),ratio (BC2T Q11H),ratio (BC2T Q11T),ratio (BC2T S8R),ratio (BC2T W10K)
B1,0,0.1,0.1,0.1,0.7,0.1,1.2,0.1,0.1,0.2,1,0.1,1,0.1,1.1,0.1,0.1,0.5,1
B2,0.1,0.3,0.2,0.3,0.9,0.2,1.1,0.3,0.2,0.4,1,0.4,1,0.2,1.1,0.2,0.2,0.9,1.1
